Measured values: patent publication US20240360214A1 (Pfizer, published 2024)

What was measured:
[1] = target: T1, LILRB1 expressed on THP1 cells (human, UniProt Q8NHL6 24-650); assay: flow cytometry competition with PE HLA-G tetramer on THP1-LILRB1 cells
T1 construct: whole, on cells; also called THP1 LILRB1 expressing cells; THP1-LILRB1 cells
Description: (§1) LILRB1 or LILRB2 overexpressing THP1 cells were prepared in FACS buffer (0.5% BSA in PBS) and seeded in 100 μl/well (96 well plate) at 1λ10⁶ cells/ml concentration. The tested antibodies were serially diluted 3-fold into assay buffer starting from 200 nM. 40 μl of serial diluted antibody together with 40 μl of PE labelled HLA-G tetramer (FRED HUTCH IMT40509) at 2 ug/ml were added to each well and incubated on ice for 1 hour. The cells were washed 2 times with FACS buffer and resuspended in 50 μl/well FACS buffer containing 1:1000 dilution of LIVE/Dead fixable violet dead cell stain (Invitrogen #L34964), incubated on ice for 15 minutes. The cells were then washed with FACS buffer for 2 times and resuspended in 80 μl of Cytofix buffer (BD Cat #554655).
(§2) The cell-based HLA-G ligand blocking assays followed the same procedure as described in Example 2.

[2] = target: T2, LILRB2 expressed on THP1 cells (human, UniProt Q8N423 22-597); assay: flow cytometry competition with PE HLA-G tetramer on THP1-LILRB2 cells
T2 construct: whole, on cells; also called THP1 LILRB2 expressing cells; THP1-LILRB2 cells
Description: as §1, §2

[3] = target: T3, human LILRB1 (huLILRB1), purified recombinant protein from R&D Systems (human, UniProt Q8NHL6 24-458, limits assumed); assay: SPR (Biacore 8K, 37 C), antibody captured by anti-human Fc, huLILRB1 as analyte, 1:1 fit
T3 construct: Bought protein, used as the SPR analyte and as the ELISA coat; The catalog number 8429-T4 is printed once for 'human LILRB2 or LILRB1'
Description: Biacore kinetic assays were conducted at 37° C. with a collection rate of 10 Hz using the Biacore 8K and 8K+instruments (Cytiva). Anti-LILRB2 antibodies were captured by an anti-human IgG (Fc specific) antibody (BR-1008-39, Cytiva) covalently coupled onto a CM5 sensor chip (29-1496-03, Cytiva) according to the manufacturer's instructions. The final capture levels of the antibodies ranged from 20 resonance units (RU) to 60 RU. HBS-EP+pH 7.4 (10 mM HEPES pH 7.4, 150 mM NaCl, 3 mM EDTA, 0.05% Tween 20) was used as sample and running buffer. Flow cell 1 was used as a reference flow cell. […] Dilutions were prepared in duplicate and injected over all flow cells for 60 s at flow rate of 50 μl per minute. Dissociation was monitored for 600 s and the surface was regenerated with two 30 s injections of 3M MgCl₂ at flow rate of 50 μl per minute. The resulting data was double referenced (Myszka, D. G. Improving biosensor analysis. J. Mol. Recognit. 12:279-284; (1999). Rate constants and affinities were determined by fitting the sensorgram data to a Langmuir 1:1 model using Biacore Insight Evaluation software version 3.0.12 (Cytiva). Results are summarized in Table 7.

[4] = target: T4, human LILRB2 (huLILRB2), purified recombinant protein (human, UniProt Q8N423 22-458, limits assumed); assay: SPR (Biacore 8K, 37 C), antibody captured by anti-human Fc, huLILRB2 as analyte, 1:1 fit
T4 construct: Bought protein, used as the SPR analyte and as the ELISA coat; also called huLILIB2

[5] = target: huLILRA1 (human, UniProt O75019 17-461, limits assumed); assay: ELISA, target coated on the plate, detection with anti-human IgG-HRP, OD at 450 nm
Description: (§3) Purified target proteins huLILRA1, A2, A3, A4, A5, A6, huLILRB1, B2, B3, B4 and B5 (all purchased from R&D) were coated on Nunc-Maxisorb 96-well ELISA plate at 1 ug/ml concentration and stored at 4° C. overnight. Plate was washed 3 times with PBS+0.05% Tween-20 and blocked with PBS+3% milk for 1 hour at room temperature. Tested LILRB1/LILRB2 bispecific antibody was serially diluted 5-fold in PBS+3% milk, starting from 133 nM. Blocking solution was removed and serially diluted antibody was added and incubated for 1 hour at room temperature. Plate was washed and a secondary detecting antibody (goat anti-human IgG-HRP from Invitrogen, Cat #31413, 1:5000) was added and incubated for 30 minutes at room temperature. Plate was washed again for 5 times; signal was developed using TMB substrate and the reaction stopped with 0.18M H₂SO₄. Absorbance was read at 450 nm on an envision plate reader (Perkin Elmer). […] There were no binding activities observed to any of the huLILRA family members tested, and no binding to huLILRB3, B4 or B5.

[6] = target: huLILRA2 (human, UniProt Q8N149 24-449, limits assumed); assay: as above
Description: as §3

[7] = target: huLILRA3 (human, UniProt Q8N6C8 24-439); assay: as above
Description: as §3

[8] = target: huLILRA4 (human, UniProt P59901 24-446, limits assumed); assay: as above
Description: as §3

[9] = target: huLILRA5 (human, UniProt A6NI73 42-268, limits assumed); assay: as above
Description: as §3

[10] = target: huLILRA6 (human, UniProt Q6PI73 24-447, limits assumed); assay: as above
Description: as §3

[11] = target: huLILRB3 (human, UniProt O75022 24-443, limits assumed); assay: as above
Description: as §3

[12] = target: huLILRB4 (human, UniProt Q8NHJ6 22-259, limits assumed); assay: as above
Description: as §3

[13] = target: huLILRB5 (human, UniProt O75023 24-458, limits assumed); assay: as above
Description: as §3

[14] = target: T4, human LILRB2 (huLILRB2), purified …; assay: as above
Description: as §3

T4 sequence (Q8N423 22-458 limits assumed): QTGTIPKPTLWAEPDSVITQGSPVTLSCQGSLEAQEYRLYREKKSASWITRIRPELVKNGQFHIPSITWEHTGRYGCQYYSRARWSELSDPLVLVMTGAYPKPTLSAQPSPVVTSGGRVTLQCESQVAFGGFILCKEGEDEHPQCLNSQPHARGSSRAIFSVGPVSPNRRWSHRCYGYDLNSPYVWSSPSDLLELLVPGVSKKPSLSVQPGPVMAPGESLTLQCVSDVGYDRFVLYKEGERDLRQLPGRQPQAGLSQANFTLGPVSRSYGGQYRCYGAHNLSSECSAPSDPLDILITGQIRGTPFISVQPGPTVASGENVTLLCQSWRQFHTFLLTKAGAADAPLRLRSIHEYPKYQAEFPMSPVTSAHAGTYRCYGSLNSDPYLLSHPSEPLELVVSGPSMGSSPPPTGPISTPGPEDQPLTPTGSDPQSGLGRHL
T3 sequence (Q8NHL6 24-458 limits assumed): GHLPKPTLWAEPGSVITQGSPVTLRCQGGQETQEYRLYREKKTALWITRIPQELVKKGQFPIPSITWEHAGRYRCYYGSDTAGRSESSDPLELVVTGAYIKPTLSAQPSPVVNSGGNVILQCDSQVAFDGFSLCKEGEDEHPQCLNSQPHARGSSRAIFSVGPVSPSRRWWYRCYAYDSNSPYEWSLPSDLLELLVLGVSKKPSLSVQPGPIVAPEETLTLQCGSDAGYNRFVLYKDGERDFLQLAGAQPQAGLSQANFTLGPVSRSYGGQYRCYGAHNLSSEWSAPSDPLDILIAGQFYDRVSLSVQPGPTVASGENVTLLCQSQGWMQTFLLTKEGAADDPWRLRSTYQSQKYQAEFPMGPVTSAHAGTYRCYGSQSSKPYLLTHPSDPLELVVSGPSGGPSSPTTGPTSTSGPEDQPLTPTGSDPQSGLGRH
T1 sequence (Q8NHL6 24-650): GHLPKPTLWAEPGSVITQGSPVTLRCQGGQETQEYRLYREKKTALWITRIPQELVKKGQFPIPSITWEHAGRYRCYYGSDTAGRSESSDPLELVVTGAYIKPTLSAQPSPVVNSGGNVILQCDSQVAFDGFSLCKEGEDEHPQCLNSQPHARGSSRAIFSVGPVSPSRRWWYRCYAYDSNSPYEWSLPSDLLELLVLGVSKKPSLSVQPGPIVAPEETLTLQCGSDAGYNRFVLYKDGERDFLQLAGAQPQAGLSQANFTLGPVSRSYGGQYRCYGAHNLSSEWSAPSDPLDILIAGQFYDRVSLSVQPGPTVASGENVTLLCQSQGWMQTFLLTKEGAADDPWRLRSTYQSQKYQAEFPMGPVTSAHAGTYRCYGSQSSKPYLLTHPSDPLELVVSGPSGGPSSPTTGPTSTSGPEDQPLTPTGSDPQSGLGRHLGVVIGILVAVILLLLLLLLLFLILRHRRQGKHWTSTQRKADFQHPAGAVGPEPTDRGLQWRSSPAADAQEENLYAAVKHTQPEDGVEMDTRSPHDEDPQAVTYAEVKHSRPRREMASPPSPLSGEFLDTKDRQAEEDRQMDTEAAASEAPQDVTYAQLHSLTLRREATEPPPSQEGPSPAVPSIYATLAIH
T2 sequence (Q8N423 22-597): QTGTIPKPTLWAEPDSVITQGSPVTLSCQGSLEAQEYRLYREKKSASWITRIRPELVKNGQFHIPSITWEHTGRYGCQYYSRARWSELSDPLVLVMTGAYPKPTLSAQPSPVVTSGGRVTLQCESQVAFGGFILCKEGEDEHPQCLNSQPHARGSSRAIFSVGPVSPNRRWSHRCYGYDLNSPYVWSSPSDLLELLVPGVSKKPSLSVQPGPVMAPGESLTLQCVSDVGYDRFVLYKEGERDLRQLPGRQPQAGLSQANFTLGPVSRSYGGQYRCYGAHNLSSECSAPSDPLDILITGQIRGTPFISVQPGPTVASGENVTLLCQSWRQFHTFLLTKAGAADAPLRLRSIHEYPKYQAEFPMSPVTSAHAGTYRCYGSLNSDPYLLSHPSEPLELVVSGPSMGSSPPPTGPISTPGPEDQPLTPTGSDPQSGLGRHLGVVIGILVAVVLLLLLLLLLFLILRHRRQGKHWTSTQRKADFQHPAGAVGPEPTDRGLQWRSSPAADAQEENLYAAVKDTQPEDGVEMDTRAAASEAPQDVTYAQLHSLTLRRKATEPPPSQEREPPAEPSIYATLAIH
Sequence of huLILRA4 (P59901 24-446 limits assumed): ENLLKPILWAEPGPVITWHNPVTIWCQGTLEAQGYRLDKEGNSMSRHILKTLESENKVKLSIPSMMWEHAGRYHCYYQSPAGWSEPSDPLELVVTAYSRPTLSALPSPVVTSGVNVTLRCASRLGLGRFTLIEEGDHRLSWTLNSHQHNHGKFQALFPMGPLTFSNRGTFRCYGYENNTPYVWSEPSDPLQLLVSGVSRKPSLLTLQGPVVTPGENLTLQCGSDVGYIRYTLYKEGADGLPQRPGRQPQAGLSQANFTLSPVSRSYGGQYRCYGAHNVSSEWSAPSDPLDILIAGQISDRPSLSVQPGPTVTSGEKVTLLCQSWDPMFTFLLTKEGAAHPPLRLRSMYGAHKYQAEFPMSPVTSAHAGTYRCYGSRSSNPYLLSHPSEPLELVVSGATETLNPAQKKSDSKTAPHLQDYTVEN
Sequence of huLILRB3 (O75022 24-443 limits assumed): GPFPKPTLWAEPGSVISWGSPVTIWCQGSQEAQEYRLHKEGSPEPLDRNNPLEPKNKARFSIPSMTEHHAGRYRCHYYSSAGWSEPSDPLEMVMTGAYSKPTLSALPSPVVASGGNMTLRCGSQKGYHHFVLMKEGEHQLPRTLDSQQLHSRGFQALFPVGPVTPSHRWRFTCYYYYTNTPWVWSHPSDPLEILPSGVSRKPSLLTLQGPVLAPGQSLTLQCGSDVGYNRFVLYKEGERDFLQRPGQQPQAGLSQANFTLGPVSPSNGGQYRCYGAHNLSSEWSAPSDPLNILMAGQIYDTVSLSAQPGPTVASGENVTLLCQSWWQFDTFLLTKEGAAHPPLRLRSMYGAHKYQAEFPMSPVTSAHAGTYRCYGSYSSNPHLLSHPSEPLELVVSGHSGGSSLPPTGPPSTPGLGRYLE
Sequence of huLILRA2 (Q8N149 24-449 limits assumed): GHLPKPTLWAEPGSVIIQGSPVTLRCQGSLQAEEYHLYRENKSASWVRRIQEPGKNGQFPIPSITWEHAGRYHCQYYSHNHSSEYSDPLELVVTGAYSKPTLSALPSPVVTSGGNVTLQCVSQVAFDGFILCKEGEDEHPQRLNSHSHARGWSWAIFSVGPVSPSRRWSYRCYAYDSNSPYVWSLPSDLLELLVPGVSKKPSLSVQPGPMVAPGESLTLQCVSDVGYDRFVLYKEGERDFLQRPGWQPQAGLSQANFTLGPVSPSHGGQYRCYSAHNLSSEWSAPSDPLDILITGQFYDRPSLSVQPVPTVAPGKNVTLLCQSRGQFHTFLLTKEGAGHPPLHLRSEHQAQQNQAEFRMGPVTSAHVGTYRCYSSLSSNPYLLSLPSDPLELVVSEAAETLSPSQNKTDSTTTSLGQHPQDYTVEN
Sequence of huLILRA3 (Q8N6C8 24-439 limits assumed): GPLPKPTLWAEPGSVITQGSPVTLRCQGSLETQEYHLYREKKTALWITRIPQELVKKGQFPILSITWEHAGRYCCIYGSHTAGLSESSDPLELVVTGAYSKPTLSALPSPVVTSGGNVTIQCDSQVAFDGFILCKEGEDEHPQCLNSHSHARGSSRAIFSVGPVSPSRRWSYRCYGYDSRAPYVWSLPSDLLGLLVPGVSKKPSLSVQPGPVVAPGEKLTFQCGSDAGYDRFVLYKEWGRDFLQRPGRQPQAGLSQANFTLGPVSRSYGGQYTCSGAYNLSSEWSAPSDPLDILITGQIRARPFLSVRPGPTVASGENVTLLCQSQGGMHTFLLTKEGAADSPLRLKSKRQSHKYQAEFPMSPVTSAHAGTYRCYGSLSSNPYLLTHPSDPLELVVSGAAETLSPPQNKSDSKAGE
Sequence of huLILRA1 (O75019 17-461 limits assumed): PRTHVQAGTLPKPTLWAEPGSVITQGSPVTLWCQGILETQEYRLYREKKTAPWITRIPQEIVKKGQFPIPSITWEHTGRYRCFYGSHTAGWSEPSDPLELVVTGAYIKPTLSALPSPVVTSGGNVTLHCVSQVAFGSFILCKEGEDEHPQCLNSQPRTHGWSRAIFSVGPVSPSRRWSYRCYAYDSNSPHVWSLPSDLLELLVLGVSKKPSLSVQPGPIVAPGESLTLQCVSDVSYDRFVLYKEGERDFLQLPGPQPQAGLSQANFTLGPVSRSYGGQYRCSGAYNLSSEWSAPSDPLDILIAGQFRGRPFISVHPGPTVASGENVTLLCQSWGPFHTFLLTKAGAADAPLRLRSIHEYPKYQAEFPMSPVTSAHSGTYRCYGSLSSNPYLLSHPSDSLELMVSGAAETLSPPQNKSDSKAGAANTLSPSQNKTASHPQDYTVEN
Sequence of huLILRA6 (Q6PI73 24-447 limits assumed): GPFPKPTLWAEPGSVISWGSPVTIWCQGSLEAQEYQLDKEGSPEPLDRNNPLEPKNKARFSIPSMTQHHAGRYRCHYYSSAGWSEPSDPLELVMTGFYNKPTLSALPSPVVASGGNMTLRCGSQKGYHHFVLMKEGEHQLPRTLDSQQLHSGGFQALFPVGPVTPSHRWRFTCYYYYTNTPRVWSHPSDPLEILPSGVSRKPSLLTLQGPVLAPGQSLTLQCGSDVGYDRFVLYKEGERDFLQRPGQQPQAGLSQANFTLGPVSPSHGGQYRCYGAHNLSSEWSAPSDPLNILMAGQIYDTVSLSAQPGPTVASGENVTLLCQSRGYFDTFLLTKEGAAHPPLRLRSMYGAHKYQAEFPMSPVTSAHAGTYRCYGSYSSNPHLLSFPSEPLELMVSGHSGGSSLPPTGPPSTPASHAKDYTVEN
Sequence of huLILRA5 (A6NI73 42-268 limits assumed): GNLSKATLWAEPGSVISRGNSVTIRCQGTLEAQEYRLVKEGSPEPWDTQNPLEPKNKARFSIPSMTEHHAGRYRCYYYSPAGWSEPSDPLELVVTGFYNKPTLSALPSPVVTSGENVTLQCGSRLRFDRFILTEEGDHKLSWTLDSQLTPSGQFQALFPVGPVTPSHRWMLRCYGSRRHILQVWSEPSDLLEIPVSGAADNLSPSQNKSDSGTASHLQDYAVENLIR

IC50 [1]	IC50 [2]	Kd [3]	koff [3]	kon [3]	t½ [3]	Kd [4]	koff [4]	kon [4]	t½ [4]	binding result [5]	binding result [6]	binding result [7]	binding result [8]	binding result [9]	binding result [10]	binding result [11]	binding result [12]	binding result [13]	EC50 (read off the curve) [14]	Binder
37.6 nM	15.4 nM	29.8 nM	0.0135 s⁻¹	457000 M⁻¹ s⁻¹	51.3 s	0.73 nM	0.000323 s⁻¹	443000 M⁻¹ s⁻¹	2150 s	no binding (tested: about 130 nM)	no binding (tested: about 130 nM)	no binding (tested: about 130 nM)	no binding (tested: about 130 nM)	no binding (tested: about 130 nM)	no binding (tested: about 130 nM)	no binding (tested: about 130 nM)	no binding (tested: about 130 nM)	no binding (tested: about 130 nM)	~0.6 nM	LILRB1xLILRB2 bispecific antibody BsAb-1882 (bispecific antibody, The B1 arm Fc chain is joined to the light chain CL; also called LILRB1/LILRB2 bispecific antibody) heavy 1: not shown light 1: SYELTQPPSVSVSPGQTASITCGGNNIGSKGVHWYQQKPGQSPVLVISYDSDRPSGIPERFSGSNSGNTATLTISGTQAMDEADYYCQVWDSSTRVFGTGTKVTVLGQPKAAPSVTLFPPSSEELQANKATLVCLISDFYPGAVTVAWKADSSPVKAGVETTTPSKQSNNKYAASSYLSLTPEQWKSHRSYSCQVTHEGSTVEKTVAPTECSDKTHTCPPCPAPEAAGAPSVFLFPPKPKDTLMISRTPEVTCVVVDVSHEDPEVKFNWYVDGVEVHNAKTKPREEQYNSTYRVVSVLTVLHQDWLNGKEYKCKVSNKALPAPIEKTISKAKGQPREPQVYTLPPCREEMTKNQVSLSCAVKGFYPSDIAVEWESNGQPENNYKTTPPVLDSDGSFFLVSKLTVDKSRWQQGNVFSCSVMHEALHNHYTQKSLSLSPGK heavy 2: EVQLLESGGGLVQPGGSLRLSCAASGFTFSSYAMSWVRQAPGKGLEWVSAISGSGGSTYYADSVKGRFTISRDNSKNTLYLQMNSLRAEDTAVYYCWRWLNLGDAFDIWGQGTMVTVSSASTKGPSVFPLAPSSKSTSGGTAALGCLVKDYFPEPVTVSWNSGALTSGVHTFPAVLQSSGLYSLSSVVTVPSSSLGTQTYICNVNHKPSNTKVDKKVEPKSCDKTHTCPPCPAPEAAGAPSVFLFPPKPKDTLMISRTPEVTCVVVDVSHEDPEVKFNWYVDGVEVHNAKTKPREEQYNSTYRVVSVLTVLHQDWLNGKEYKCKVSNKALPAPIEKTISKAKGQPREPQVCTLPPSREEMTKNQVSLWCLVKGFYPSDIAVEWESNGQPENNYKTTPPVLDSDGSFFLYSKLTVDKSRWQQGNVFSCSVMHEALHNHYTQKSLSLSPGK light 2: not shown
43.2 nM	16.1 nM	–	–	–	–	–	–	–	–	–	–	–	–	–	–	–	–	–	–	LILRB1xLILRB2 bispecific antibody BsAb-1880 (bispecific antibody, human IgG1) heavy 1: not shown light 1: SYELTQPPSVSVSPGQTASITCGGNNIGSKGVHWYQQKPGQSPVLVISYDSDRPSGIPERFSGSNSGNTATLTISGTQAMDEADYYCQVWDSSTRVFGTGTKVTVLGQPKAAPSVTLFPPSSEELQANKATLVCLISDFYPGAVTVAWKADSSPVKAGVETTTPSKQSNNKYAASSYLSLTPEQWKSHRSYSCQVTHEGSTVEKTVAPTECS heavy 2: EVQLLESGGGLVQPGGSLRLSCAASGFTFSSYAMSWVRQAPGKGLEWVSAISGSGGSTYYADSVKGRFTISRDNSKNTLYLQMNSLRAEDTAVYYCWRWLNLGDAFDIWGQGTMVTVSSASTKGPSVFPLAPSSKSTSGGTAALGCLVKDYFPEPVTVSWNSGALTSGVHTFPAVLQSSGLYSLSSVVTVPSSSLGTQTYICNVNHKPSNTKVDKKVEPKSCEKTHTCPPCPAPEAAGAPSVFLFPPKPKDTLMISRTPEVTCVVVDVSHEDPEVKFNWYVDGVEVHNAKTKPREEQYNSTYRVVSVLTVLHQDWLNGKEYKCKVSNKALPAPIEKTISKAKGQPREPQVYTLPPSREEMTKNQVSLTCEVKGFYPSDIAVEWESNGQPENNYKTTPPVLDSDGSFFLYSKLTVDKSRWQQGNVFSCSVMHEALHNHYTQKSLSLSPGK light 2: not shown
